For one assay, the system named is E. coli cells. Put plainly: Growth of E. coli expressing EPSP synthase genes on M63 agar medium containing glyphosate. The assay is classed as cell-based. To be noted: for Glyphosate resistance conferred by expression in E. coli (summary in words): M63 agar, various concentrations of glyphosate, vs pAX701 glyphosate-sensitive control. From the text:
The coding sequence of the Clostridium acetobutylicum EPSP synthase gene (SEQ ID NO:5), identified in Genbank accession number NC—003030, was PCR amplified using the following primers: […] (upper) (SEQ ID NO:42) and […] (lower) (SEQ ID NO:43). The upper primer changed the start codon to ATG from TTG, as it naturally occurs. The resultant 1.3 kb product was digested with BamH I and Asc I, and ligated into the same sites of a modified version of pUC 18 and transformed into the E. coli strain DH5a. A positive clone containing the EPSP synthase insert was identified by restriction digest and named pAX714. A pAX714 colony was struck onto minimal M63 media containing IPTG, carbenicillin and 0, 20, 50 or 100 mM glyphosate, and the plates were incubated at 37° C. […] The encoded EPSP synthase (SEQ ID NO:6) was named grg10.
Plasmids pAX714 and pAX716, containing grg10 and grg20, respectively, were transformed into E. coli cells and streaked onto M63 agar medium containing IPTG, carbenicillin, and various concentrations of glyphosate. Colonies of pAX701 (containing the wild-type E. coli aroA gene) were used as glyphosate-sensitive controls.
Plasmids pAX723 and pAX72^4, containing grg21 and grg22, respectively, were transformed into E. coli cells and streaked onto M63 agar medium containing IPTG, carbenicillin, and various concentrations of glyphosate. Colonies of pAX701 (containing the wild-type E. coli aroA gene) were used as glyphosate-sensitive controls.

Another assay has as its system bacteria and plants. The conditions noted are these: statement referring to earlier patent applications; cited from earlier work.

B1: grg22: EPSP synthase of Methanopyrus kandleri (SEQ ID NO:10), synthetic gene in plasmid pAX724 (protein, listed as Methanopyrus kanleri)
chain: MKRVELEGIPEVRGTVCPPPSKSGSHRALIAASLCDGSTELWNVLDAEDVRATLRLCRMLGAEVDVDGEERLEATVSGFGDSPRAPEDVVDCGNSGTTLRLGCGLAALVEGTTILTGDDSLRSRPVGDLLAALRSLGVDARGRVVRGEEYPPVVISGRPLRERVAVYGDVSSQFVSALLFLGAGLGALRVDVVGDLRSRPYVDMTVETLERFGVSVVREGSSFEVEGRPRSPGKLRVENDWSSAGYFVALGAIGGEMRIEGVDLDSSHPDRRIVEITREMGAEVRRIDGGIVVRSTGRLEGVEVDLSDSPDLVPTVAAMACFAEGVTRIENVGHLRYKEVDRLRALAAELPKFGVEVREGKDWLEIVGGEPVGARVDSRGDHRMAMALAVVGAFARGKTVVERADAVSISYPRFWEDLASVGVPVHSV
As to B1, the “Glyphosate resistance conferred by expression in E. coli (summary in words)” value (shortened to “Glyphosate resistance conferred”) in the assay with E. coli cells was “confers resistance to high levels of glyphosate”.

B2: grg10: EPSP synthase of Clostridium acetobutylicum (SEQ ID NO:6), expressed from plasmid pAX714 (protein, listed as Clostridium acetobutylicum)
chain: MNCVKINPCCLKGDIKIPPSKSLGHRAIICAALSEEESTIENISYSKDIKATCIGMSKLGALIIEDAKDNSTLKIKKQKLVSKEKVYIDCSESGSTVRFLIPISLIEERNVVFDGQGKLSYRPLDSYFNIFDEKEIAYSHPEGKVLPLQIKGRLKAGMFNLPGNISSQFISGLMFSLPFLEGDSIINITTNLESVGYVDMTIDMLKKFGIEIENKAYKSFFIKGNQKCKGTKYKVEGDFSQAAFWLSAGILNGNINCKDLNISSLQGDKVILDILKKMGGAIDEKSFSSKKSHTHGIVIDASQCPDLVPILSVVAALSEGTTKIVNAARLRIKESDRLKAMATELNKLGAEVVELEDGLLIEGKEKLKGGEVESWNDHRIAMALGIAALRCEESVTINGSECVSKSYPQFWSDLKQLGGDVHEWSLGE
On to B2, for which the “Glyphosate concentration to which the encoded EPSP synthase is resistant” value in the assay on E. coli cells (E. coli DH5a on minimal M63 media, 37° C.) was “at least 100 mM”. Also, in the assay with E. coli cells, the “Glyphosate resistance conferred” value is “confers resistance to high levels of glyphosate”. For the same molecule, the “Growth of pAX714-containing cells on glyphosate” value with E. coli cells (minimal M63 media with IPTG, carbenicillin and 0, 20, 50 or 100 mM glyphosate, 37° C.) is on record as “grew very well on all concentrations of glyphosate tested”.

B3: grg21: EPSP synthase of Fusobacterium nucleatum (SEQ ID NO:8), synthetic gene in plasmid pAX723 (protein, listed as Fusobacterium nucleatum)
chain: MRNMNKKIIKADKLVGEVTPPPSKSVLHRYIIASSLAKGISKIENISYSDDIIATIEAMKKLGANIEKKDNYLLIDGSKTFDKEYLNNDSEIDCNESGSTLRFLFPLSIVKENKILFKGKGKLFKRPLSPYFENFDKYQIKCSSINENKILLDGELKSGVYEIDGNISSQFITGLLFSLPLLNGNSKIIIKGKLESSSYIDITLDCLNKFGINIINNSYKEFIIEGNQTYKSGNYQVEADYSQVAFFLVANSIGSNIKINGLNVNSLQGDKKIIDFISEIDNWTKNEKLILDGSETPDIIPILSLKACISKKEIEIVNIARLRIKESDRLSATVQELSKLGFDLIEKEDSILINSRKNFNEISNNSPISLSSHSDHRIAMTVAIASTCYEGEIILDNLDCVKKSYPNFWEVFLSLGGKIYEYLG
With B3, in the assay on E. coli cells, the “Glyphosate resistance conferred” value is given as “confers resistance to high levels of glyphosate”.

B4: GRG1: EPSP synthase (SEQ ID NO:2) that confers glyphosate resistance, from U.S. application 10/739,610 (protein, listed as Enterobacteriaceae sp.)
chain: VKVTIQPGDLTGIIQSPASKSSMQRACAAALVAKGISEIINPGHSNDDKAARDIVSRLGARLEDQPDGSLQITSEGVKPVAPFIDCGESGLSIRMFTPIVALSKEEVTIKGSGSLVTRPMDFFDEILPHLGVKVKSNQGKLPLVIQGPLKPADVTVDGSLSSQFLTGLLLAYAAADASDVAIKVTNLKSRPYIDLTLDVMKRFGLKTPENRNYEEFYFKAGNVYDETKMQRYTVEGDWSGGAFLLVAGAIAGPITVRGLDIASTQADKAIVQALMSANAGIAIDAKEIKLHPADLNAFEFDATDCPDLFPPLVALASYCKGETKIKGVSRLAHKESDRGLTLQDEFGKMGVEIHLEGDLMRVIGGKGVKGAEVSSRHDHRIAMACAVAALKAVGETTIEHAEAVNKSYPDFYSDLKQLGGVVSLNHQFNFS
As to B4, the “Glyphosate resistance or tolerance conferred on organisms (in words)” value in the assay with bacteria and plants was “confers glyphosate resistance upon both bacteria and plants”.

B5: GRG23: EPSP synthase (SEQ ID NO:14) isolated from a bacterial strain exhibiting strong glyphosate resistance (protein, listed as Arthrobacter globiformis)
chain: MALERGQHGRSRRLFGASLERITMETDRLVIPGSKSITNRALLLAAAAKGTSVLVRPLVSADTSAFKTAIQALGANVSADGDNWVVEGLGQAPHLDADIWCEDAGTVARFLPPFVAAGQGKFTVDGSEQLRRRPLRPLVDGIRHLGARVSSEQLPLTIEASGLAGGEYEIEAHQSSQFASGLIMAAPYARQGLRVRIPNPVSQPYLTMTLRMMRDFGLETSTDGATVSVPPGRYTARRYEIEPDASTASYFAAASAVSGRSFEFQGLGTDSIQGDTSFFNVLGRLGAEVHWAPNSVTISGPERLNGDIEVDMGEISDTFMTLAAIAPLADGPITITNIGHARLKESDRISAMETNLRTLGVQTDVGHDWMRIYPSTPHGGRVNCHRDHRIAMAFSILGLRVDGITLDDPQCVGKTFPGFFDYLGRLFPEKALTLPG
modifications: VARIANT (0)...(0) Strain ATX21308
Regarding B5, the “Glyphosate resistance or tolerance conferred on organisms (in words)” value in the assay on bacteria and plants was “confers glyphosate tolerance”.

B6: grg20: EPSP synthase of Sulfolobus solfataricus (SEQ ID NO:12), expressed from plasmid pAX716 (protein, listed as Solfolobus solfataricus)
chain: MIVKIYPSKISGIIKAPQSKSLAIRLIFLSLFTRVYLHNLVLSEDVIDAIKSVRALGVKVKNNSEFIPPEKLEIKERFIKLKGSATTLRMLIPILAAIGGEVTIDADESLRRRPLNRIVQALSNYGISFSSYSLPLTITGKLSSNEIKISGDESSQYISGLIYALHILNGGSIEILPPISSKSYILLTIDLFKRFGSDVKFYGSKIHVNPNNLVEFQGEVAGDYGLASFYALSALVSGGGITITNLWEPKEYFGDHSIVKIFSEMGASSEYKDGRWFVKAKDKYSPIKIDIDDAPDLAMTIAGLSAIAEGTSEIIGIERLRIKESDRIESIRKILGLYGVGSEVKYNSILIFGINKGMLNSPVTDCLNDHRVAMMSSALALVNGGVITSAECVGKSNPNYWQDLLSLNAKISIE
As to B6, the “Glyphosate resistance conferred” value in the assay on E. coli cells was “confers resistance to high levels of glyphosate”.

The values are drawn from US20080313769A9, “EPSP synthase domains conferring glyphosate resistance” (Athenix Corporation, priority 2006, published 2008).
